Results from patent US20190169286A1 (Chugai, published 2019).

What was measured:
human IL-8 [1] = target: T1, human IL-8 (human, UniProt P10145 23-99, limits assumed); assay: SPR Biacore T200, Protein A/G capture, pH 7.4, 40C;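 also: antibodies captured via Protein A/G, which was amine-coupled to a CM4 sensor chip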
T1 construct: also called hIL-8; hIL8
Description: (§1) An appropriate amount of Protein A/G (PIERCE) was immobilized onto the Sensor chip CM4 (GE Healthcare) by the amine coupling method and the antibodies of interest were captured. […] To regenerate the sensor chip, 25 mM NaOH and 10 mM glycine-HCl (pH 1.5) were used. […] The BIACORE T200 Evaluation Software (GE Healthcare) was used to calculate each parameter.

human IL-8 [2] = target: T1, human IL-8; assay: SPR Biacore T200, Protein A/G capture, pH 5.8, 37C;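 also: antibodies captured by Protein A/G amine-coupled onto a CM4 sensor chip, with kinetic parameters derived using Biacore T200 Evaluation Software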
Description: as §1

T1 sequence (P10145 23-99 limits assumed): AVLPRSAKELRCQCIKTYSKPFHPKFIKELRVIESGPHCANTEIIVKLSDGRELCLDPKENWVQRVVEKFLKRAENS

Binder | Kd (human IL-8 [1]) [nM] | Kd (human IL-8 [2]) [nM] | koff (human IL-8 [2]) [s⁻¹]
H0932/L0395 (antibody, name in Kabat numbering, V domains shown) VH: QVQLVESGGGLVQPGGSLRLSCAASGFTFSDYYLSWVRQAPGKGLEWVGLIRNKDNHHTPEYSASVKGRFTISRDDSKNSLYLTMSDLKTEDTAVYYCARENHRYDVELAYWGQGTLVTVSS VL: DIQMTQSPSSLSASVGDRVTITCRASEIIYSYLAWYQQKPGKAPKLLIYKAKTHADGVPSRFSGSGSGTDFTFTISSLQPEDIATYYCKHHFGFPRTFGQGTKVEIKR | 0.16 |  | 
H1047/L0442 (antibody, human IgG1, kappa, name in Kabat numbering, V domains shown, L442 = L395 + S31E) VH: QVQLVESGGGLVQPGGSLRLSCAASGFTFDKYYLSWVRQAPGKGLEWVGLIRNKDNGYTPEYSASVKGRFTISRDDSKNSLYLTMSDLKTEDTAVYYCARENHRYDVELAYWGQGTLVTVSS VL: DIQMTQSPSSLSASVGDRVTITCRASEIIYEYLAWYQQKPGKAPKLLIYKAKTHADGVPSRFSGSGSGTDFTFTISSLQPEDIATYYCKHHFGFPRTFGQGTKVEIKR |  | 47 | 
H1022/L0442 (antibody, human IgG1, kappa, name in Kabat numbering, V domains shown, L442 = L395 + S31E) VH: QVQLVESGGGLVQPGGSLRLSCAASGFTFSDYYLSWVRQAPGKGLEWVGLIRNKDNHHHPEYSASVKGRFTISRDDSKNSLYLTMSDLKTEDTAVYYCARENHRYDVELAYWGQGTLVTVSS VL: DIQMTQSPSSLSASVGDRVTITCRASEIIYEYLAWYQQKPGKAPKLLIYKAKTHADGVPSRFSGSGSGTDFTFTISSLQPEDIATYYCKHHFGFPRTFGQGTKVEIKR | 0.36 | 180 | 0.02
H1031/L0442 (antibody, human IgG1, kappa, name in Kabat numbering, V domains shown, L442 = L395 + S31E) VH: QVQLVESGGGLVQPGGSLRLSCAASGFTFDKYYLSWVRQAPGKGLEWVGLIRNKDNHHHPEYSASVKGRFTISRDDSKNSLYLTMSDLKTEDTAVYYCARENHRYDVELAYWGQGTLVTVSS VL: DIQMTQSPSSLSASVGDRVTITCRASEIIYEYLAWYQQKPGKAPKLLIYKAKTHADGVPSRFSGSGSGTDFTFTISSLQPEDIATYYCKHHFGFPRTFGQGTKVEIKR |  | 89 | 
H1032/L0395 (antibody, human IgG1, kappa, name in Kabat numbering, V domains shown) VH: QVQLVESGGGLVQPGGSLRLSCAASGFTFDKYYLSWVRQAPGKGLEWVGLIRNKDNGYHPEYSASVKGRFTISRDDSKNSLYLTMSDLKTEDTAVYYCARENHRYDVELAYWGQGTLVTVSS VL: DIQMTQSPSSLSASVGDRVTITCRASEIIYSYLAWYQQKPGKAPKLLIYKAKTHADGVPSRFSGSGSGTDFTFTISSLQPEDIATYYCKHHFGFPRTFGQGTKVEIKR | 0.042 | 50 | 0.0041
H1029/L0395 (antibody, human IgG1, kappa, name in Kabat numbering, V domains shown) VH: QVQLVESGGGLVQPGGSLRLSCAASGFTFDKYYLSWVRQAPGKGLEWVGLIRNKDNHHTPEYSASVKGRFTISRDDSKNSLYLTMSDLKTEDTAVYYCARENHRYDVELAYWGQGTLVTVSS VL: DIQMTQSPSSLSASVGDRVTITCRASEIIYSYLAWYQQKPGKAPKLLIYKAKTHADGVPSRFSGSGSGTDFTFTISSLQPEDIATYYCKHHFGFPRTFGQGTKVEIKR | 0.086 | 55 | 0.008
H1048/L0442 (antibody, human IgG1, kappa, name in Kabat numbering, V domains shown, L442 = L395 + S31E) VH: QVQLVESGGGLVQPGGSLRLSCAASGFTFSEYYLSWVRQAPGKGLEWVGLIRNKDNGYTPEYSASVKGRFTISRDDSKNSLYLTMSDLKTEDTAVYYCARENHRYDVELAYWGQGTLVTVSS VL: DIQMTQSPSSLSASVGDRVTITCRASEIIYEYLAWYQQKPGKAPKLLIYKAKTHADGVPSRFSGSGSGTDFTFTISSLQPEDIATYYCKHHFGFPRTFGQGTKVEIKR |  | 67 | 
H1022/L0395 (antibody, human IgG1, kappa, name in Kabat numbering, V domains shown) VH: QVQLVESGGGLVQPGGSLRLSCAASGFTFSDYYLSWVRQAPGKGLEWVGLIRNKDNHHHPEYSASVKGRFTISRDDSKNSLYLTMSDLKTEDTAVYYCARENHRYDVELAYWGQGTLVTVSS VL: DIQMTQSPSSLSASVGDRVTITCRASEIIYSYLAWYQQKPGKAPKLLIYKAKTHADGVPSRFSGSGSGTDFTFTISSLQPEDIATYYCKHHFGFPRTFGQGTKVEIKR | 0.27 | 290 | 12
H1000/L0442 (antibody, human IgG1, kappa, name in Kabat numbering, V domains shown, L442 = L395 + S31E) VH: QVQLVESGGGLVQPGGSLRLSCAASGFTFSEYYLSWVRQAPGKGLEWVGLIRNKDNHHTPEYSASVKGRFTISRDDSKNSLYLTMSDLKTEDTAVYYCARENHRYDVELAYWGQGTLVTVSS VL: DIQMTQSPSSLSASVGDRVTITCRASEIIYEYLAWYQQKPGKAPKLLIYKAKTHADGVPSRFSGSGSGTDFTFTISSLQPEDIATYYCKHHFGFPRTFGQGTKVEIKR | 0.2 | 71 | 0.017
H0932/L0442 (antibody, human IgG1, kappa, name in Kabat numbering, V domains shown) VH: QVQLVESGGGLVQPGGSLRLSCAASGFTFSDYYLSWVRQAPGKGLEWVGLIRNKDNHHTPEYSASVKGRFTISRDDSKNSLYLTMSDLKTEDTAVYYCARENHRYDVELAYWGQGTLVTVSS VL: DIQMTQSPSSLSASVGDRVTITCRASEIIYEYLAWYQQKPGKAPKLLIYKAKTHADGVPSRFSGSGSGTDFTFTISSLQPEDIATYYCKHHFGFPRTFGQGTKVEIKR |  | 79 | 
H1029/L0442 (antibody, human IgG1, kappa, name in Kabat numbering, V domains shown, L442 = L395 + S31E) VH: QVQLVESGGGLVQPGGSLRLSCAASGFTFDKYYLSWVRQAPGKGLEWVGLIRNKDNHHTPEYSASVKGRFTISRDDSKNSLYLTMSDLKTEDTAVYYCARENHRYDVELAYWGQGTLVTVSS VL: DIQMTQSPSSLSASVGDRVTITCRASEIIYEYLAWYQQKPGKAPKLLIYKAKTHADGVPSRFSGSGSGTDFTFTISSLQPEDIATYYCKHHFGFPRTFGQGTKVEIKR | 0.14 | 48 | 0.0085
H1031/L0395 (antibody, human IgG1, kappa, name in Kabat numbering, V domains shown) VH: QVQLVESGGGLVQPGGSLRLSCAASGFTFDKYYLSWVRQAPGKGLEWVGLIRNKDNHHHPEYSASVKGRFTISRDDSKNSLYLTMSDLKTEDTAVYYCARENHRYDVELAYWGQGTLVTVSS VL: DIQMTQSPSSLSASVGDRVTITCRASEIIYSYLAWYQQKPGKAPKLLIYKAKTHADGVPSRFSGSGSGTDFTFTISSLQPEDIATYYCKHHFGFPRTFGQGTKVEIKR |  | 99 | 

Further lines, results first:

Kd (human IL-8 [1]) [nM] | Kd (human IL-8 [2]) [nM] | koff (human IL-8 [2]) [s⁻¹] | Binder
0.24 | 140 | 0.13 | H1028/L0442 (antibody, human IgG1, kappa, name in Kabat numbering, V domains shown, L442 = L395 + S31E) VH: QVQLVESGGGLVQPGGSLRLSCAASGFTFSDYYLSWVRQAPGKGLEWVGLIRNKDNYHHPEYSASVKGRFTISRDDSKNSLYLTMSDLKTEDTAVYYCARENHRYDVELAYWGQGTLVTVSS VL: DIQMTQSPSSLSASVGDRVTITCRASEIIYEYLAWYQQKPGKAPKLLIYKAKTHADGVPSRFSGSGSGTDFTFTISSLQPEDIATYYCKHHFGFPRTFGQGTKVEIKR
 | 90 |  | H1048/L0395 (antibody, human IgG1, kappa, name in Kabat numbering, V domains shown) VH: QVQLVESGGGLVQPGGSLRLSCAASGFTFSEYYLSWVRQAPGKGLEWVGLIRNKDNGYTPEYSASVKGRFTISRDDSKNSLYLTMSDLKTEDTAVYYCARENHRYDVELAYWGQGTLVTVSS VL: DIQMTQSPSSLSASVGDRVTITCRASEIIYSYLAWYQQKPGKAPKLLIYKAKTHADGVPSRFSGSGSGTDFTFTISSLQPEDIATYYCKHHFGFPRTFGQGTKVEIKR
0.14 | 89 | 0.02 | H1000/L0395 (antibody, human IgG1, kappa, name in Kabat numbering, V domains shown) VH: QVQLVESGGGLVQPGGSLRLSCAASGFTFSEYYLSWVRQAPGKGLEWVGLIRNKDNHHTPEYSASVKGRFTISRDDSKNSLYLTMSDLKTEDTAVYYCARENHRYDVELAYWGQGTLVTVSS VL: DIQMTQSPSSLSASVGDRVTITCRASEIIYSYLAWYQQKPGKAPKLLIYKAKTHADGVPSRFSGSGSGTDFTFTISSLQPEDIATYYCKHHFGFPRTFGQGTKVEIKR
0.23 |  |  | H1046/L0442 (antibody, human IgG1, kappa, name in Kabat numbering, V domains shown, L442 = L395 + S31E) VH: QVQLVESGGGLVQPGGSLRLSCAASGFTFSEYYLSWVRQAPGKGLEWVGLIRNKDNYHHPEYSASVKGRFTISRDDSKNSLYLTMSDLKTEDTAVYYCARENHRYDVELAYWGQGTLVTVSS VL: DIQMTQSPSSLSASVGDRVTITCRASEIIYEYLAWYQQKPGKAPKLLIYKAKTHADGVPSRFSGSGSGTDFTFTISSLQPEDIATYYCKHHFGFPRTFGQGTKVEIKR
0.18 | 210 |  | H1028/L0395 (antibody, human IgG1, kappa, name in Kabat numbering, V domains shown) VH: QVQLVESGGGLVQPGGSLRLSCAASGFTFSDYYLSWVRQAPGKGLEWVGLIRNKDNYHHPEYSASVKGRFTISRDDSKNSLYLTMSDLKTEDTAVYYCARENHRYDVELAYWGQGTLVTVSS VL: DIQMTQSPSSLSASVGDRVTITCRASEIIYSYLAWYQQKPGKAPKLLIYKAKTHADGVPSRFSGSGSGTDFTFTISSLQPEDIATYYCKHHFGFPRTFGQGTKVEIKR
0.078 | 43 | 0.0059 | H1032/L0442 (antibody, human IgG1, kappa, name in Kabat numbering, V domains shown, L442 = L395 + S31E) VH: QVQLVESGGGLVQPGGSLRLSCAASGFTFDKYYLSWVRQAPGKGLEWVGLIRNKDNGYHPEYSASVKGRFTISRDDSKNSLYLTMSDLKTEDTAVYYCARENHRYDVELAYWGQGTLVTVSS VL: DIQMTQSPSSLSASVGDRVTITCRASEIIYEYLAWYQQKPGKAPKLLIYKAKTHADGVPSRFSGSGSGTDFTFTISSLQPEDIATYYCKHHFGFPRTFGQGTKVEIKR
0.22 | 77 | 0.02 | H1004/L0442 (antibody, human IgG1, kappa, name in Kabat numbering, V domains shown, L442 = L395 + S31E) VH: QVQLVESGGGLVQPGGSLRLSCAASGFTFSDYYLSWVRQAPGKGLEWVGLIRNKDNGYTPEYSASVKGRFTISRDDSKNSLYLTMSDLKTEDTAVYYCARENHRYDVELAYWGQGTLVTVSS VL: DIQMTQSPSSLSASVGDRVTITCRASEIIYEYLAWYQQKPGKAPKLLIYKAKTHADGVPSRFSGSGSGTDFTFTISSLQPEDIATYYCKHHFGFPRTFGQGTKVEIKR
0.11 | 63 | 0.006 | H1009/L0442 (antibody, human IgG1, kappa, name in Kabat numbering, V domains shown, L442 = L395 + S31E) VH: QVQLVESGGGLVQPGGSLRLSCAASGFTFSDYYLSWVRQAPGKGLEWVGLIRNKDNYHTPEYSASVKGRFTISRDDSKNSLYLTMSDLKTEDTAVYYCARENHRYDVELAYWGQGTLVTVSS VL: DIQMTQSPSSLSASVGDRVTITCRASEIIYEYLAWYQQKPGKAPKLLIYKAKTHADGVPSRFSGSGSGTDFTFTISSLQPEDIATYYCKHHFGFPRTFGQGTKVEIKR
